Test results taken from the MegaScale stability set (Tsuboyama et al. 2023).

B1: r4_43_TrROS_Hall (parent)
chain: DLVTIKVPLENLEEIKKAAEKAGFKIVSISYDKENKEVTIVIEKKK

Variants of: B1
Assay: folding stability dG (cDNA display proteolysis); higher = more stable
Conditions: PBS, room temperature

First: DLVTIKVPLENLEEIKKAAEKAGFKIVSISYDKENKEVTIVIENKK
Second: DLVTIKVPLENLEEIKKAAEKAGFKIVSISYDKENKEVTIVIEGKK
The “folding stability dG” value of the first is lower: 3.53 kcal/mol for the first, 3.73 kcal/mol for the second.

Going from DLVTIKVPLENLEEIKKAAEKAGFKIVSISYDKENKEVTIVIEMKK to DLVTIKVPLENLEEIKKAAEKAGFKIVSISYDKENKEVTIVIEQKK, the “folding stability dG” value falls from 3.96 kcal/mol to 3.52 kcal/mol.

Going from DLVTIKVPLENLEEIKKAAEKAGFKIVSISYDKENKEVTIVIEDKK to DLVTIKVPLENLEEIKKAAEKAGFKIVSISYDKENKEVTIVIEFKK, the “folding stability dG” value rises from 3.54 kcal/mol to 4.48 kcal/mol.

Compared with DLVTIKVPLENLEEIKKAAEKAGFKIVSISYDKENKEVTIVIEIKK, DLVTIKVPLENLEEIKKAAEKAGFKIVSISYDKENKEVTIVIETKK is higher in “folding stability dG” value: 3.93 kcal/mol for the first, 4.11 kcal/mol for the second.

Compared with DLVTIKVPLENLEEIKKAAEKAGFKIVSISYDKENKEVTIVIEYKK, DLVTIKVPLENLEEIKKAAEKAGFKIVSISYDKENKEVTIVIESKK is lower in “folding stability dG” value: 4.68 kcal/mol for the first, 3.49 kcal/mol for the second.

Compared with DLVTIKVPLENLEEIKKAAEKAGFKIVSISYDKENKEVTIVIECKK, DLVTIKVPLENLEEIKKAAEKAGFKIVSISYDKENKEVTIVIEWKK is higher in “folding stability dG” value: 3.76 kcal/mol for the first, 4.25 kcal/mol for the second.

Compared with DLVTIKVPLENLEEIKKAAEKAGFKIVSISYDKENKEVTIVIERKK, DLVTIKVPLENLEEIKKAAEKAGFKIVSISYDKENKEVTIVIEVKK is higher in “folding stability dG” value: 3.83 kcal/mol for the first, 3.92 kcal/mol for the second.

Compared with DLVTIKVPLENLEEIKKAAEKAGFKIVSISYDKENKEVTIVIELKK, DLVTIKVPLENLEEIKKAAEKAGFKIVSISYDKENKEVTIVIEEKK is lower in “folding stability dG” value: 3.96 kcal/mol for the first, 3.58 kcal/mol for the second.

First: DLVTIKVPLENLEEIKKAAEKAGFKIVSISYDKENKEVTIVIEPKK
Second: DLVTIKVPLENLEEIKKAAEKAGFKIVSISYDKENKEVTIVIEHKK
The “folding stability dG” value of the first is lower: 3.55 kcal/mol for the first, 3.73 kcal/mol for the second.

Compared with DLVTIKVPLENLEEIKKAAEKAGFKIVSISYDKENKEVTIVIEKKP, DLVTIKVPLENLEEIKKAAEKAGFKIVSISYDKENKEVTIVIEKKC is higher in “folding stability dG” value: 3.71 kcal/mol for the first, 3.83 kcal/mol for the second.

Compared with DLVTIKVPLENLEEIKKAAEKAGFKIVSISYDKENKEVTIVIEKKI, DLVTIKVPLENLEEIKKAAEKAGFKIVSISYDKENKEVTIVIEKKA is lower in “folding stability dG” value: 3.61 kcal/mol for the first, 3.52 kcal/mol for the second.

Compared with DLVTIKVPLENLEEIKKAAEKAGFKIVSISYDKENKEVTIVIEKKD, DLVTIKVPLENLEEIKKAAEKAGFKIVSISYDKENKEVTIVIEKKL is higher in “folding stability dG” value: 3.55 kcal/mol for the first, 3.65 kcal/mol for the second.

Compared with DLVTIKVPLENLEEIKKAAEKAGFKIVSISYDKENKEVTIVIEKKE, DLVTIKVPLENLEEIKKAAEKAGFKIVSISYDKENKEVTIVIEKKN is lower in “folding stability dG” value: 3.84 kcal/mol for the first, 3.49 kcal/mol for the second.

First: DLVTIKVPLENLEEIKKAAEKAGFKIVSISYDKENKEVTIVIEKKR
Second: DLVTIKVPLENLEEIKKAAEKAGFKIVSISYDKENKEVTIVIEKKM
The “folding stability dG” value of the first is higher: 3.68 kcal/mol for the first, 3.55 kcal/mol for the second.

Compared with DLVTIKVPLENLEEIKKAAEKAGFKIVSISYDKENKEVTIVIEKKS, DLVTIKVPLENLEEIKKAAEKAGFKIVSISYDKENKEVTIVIEKKG is lower in “folding stability dG” value: 3.72 kcal/mol for the first, 3.38 kcal/mol for the second.

Going from DLVTIKVPLENLEEIKKAAEKAGFKIVSISYDKENKEVTIVIEKKY to DLVTIKVPLENLEEIKKAAEKAGFKIVSISYDKENKEVTIVIEKKV, the “folding stability dG” value falls from 4.33 kcal/mol to 3.93 kcal/mol.

First: DLVTIKVPLENLEEIKKAAEKAGFKIVSISYDKENKEVTIVIEKKQ
Second: DLVTIKVPLENLEEIKKAAEKAGFKIVSISYDKENKEVTIVIEKKW
The “folding stability dG” value of the first is lower: 3.86 kcal/mol for the first, 4.4 kcal/mol for the second.

First: DLVTIKVPLENLEEIKKAAEKAGFKIVSISYDKENKEVTIVIEKKF
Second: DLVTIKVPLENLEEIKKAAEKAGFKIVSISYDKENKEVTIVIEKKT
The “folding stability dG” value of the first is higher: 4.31 kcal/mol for the first, 3.82 kcal/mol for the second.

First: DLVTIKVPLENLEEIKKAAEKAGFKIVSISYDKENKEVTIVIEKKH
Second: DLVTIKVPLENLEEIKKAAEKAGFKIVSISYDKENKEVTIVIEKWK
The “folding stability dG” value of the first is lower: 4.17 kcal/mol for the first, 4.49 kcal/mol for the second.

Going from DLVTIKVPLENLEEIKKAAEKAGFKIVSISYDKENKEVTIVIEKNK to DLVTIKVPLENLEEIKKAAEKAGFKIVSISYDKENKEVTIVIEKEK, the “folding stability dG” value falls from 3.84 kcal/mol to 3.5 kcal/mol.

Compared with DLVTIKVPLENLEEIKKAAEKAGFKIVSISYDKENKEVTIVIEKAK, DLVTIKVPLENLEEIKKAAEKAGFKIVSISYDKENKEVTIVIEKIK is lower in “folding stability dG” value: 3.92 kcal/mol for the first, 3.87 kcal/mol for the second.

Going from DLVTIKVPLENLEEIKKAAEKAGFKIVSISYDKENKEVTIVIEKSK to DLVTIKVPLENLEEIKKAAEKAGFKIVSISYDKENKEVTIVIEKDK, the “folding stability dG” value rises from 3.72 kcal/mol to 3.94 kcal/mol.

First: DLVTIKVPLENLEEIKKAAEKAGFKIVSISYDKENKEVTIVIEKQK
Second: DLVTIKVPLENLEEIKKAAEKAGFKIVSISYDKENKEVTIVIEKFK
The “folding stability dG” value of the first is lower: 3.73 kcal/mol for the first, 4.41 kcal/mol for the second.

Going from DLVTIKVPLENLEEIKKAAEKAGFKIVSISYDKENKEVTIVIEKMK to DLVTIKVPLENLEEIKKAAEKAGFKIVSISYDKENKEVTIVIEKTK, the “folding stability dG” value rises from 3.93 kcal/mol to 3.99 kcal/mol.

First: DLVTIKVPLENLEEIKKAAEKAGFKIVSISYDKENKEVTIVIEKGK
Second: DLVTIKVPLENLEEIKKAAEKAGFKIVSISYDKENKEVTIVIEKRK
The “folding stability dG” value of the first is lower: 3.87 kcal/mol for the first, 3.94 kcal/mol for the second.

First: DLVTIKVPLENLEEIKKAAEKAGFKIVSISYDKENKEVTIVIEKPK
Second: DLVTIKVPLENLEEIKKAAEKAGFKIVSISYDKENKEVTIVIEKVK
The “folding stability dG” value of the first is lower: 3.64 kcal/mol for the first, 4.13 kcal/mol for the second.

Going from DLVTIKVPLENLEEIKKAAEKAGFKIVSISYDKENKEVTIVIEKCK to DLVTIKVPLENLEEIKKAAEKAGFKIVSISYDKENKEVTIVIEKLK, the “folding stability dG” value rises from 3.87 kcal/mol to 3.95 kcal/mol.

Going from DLVTIKVPLENLEEIKKAAEKAGFKIVSISYDKENKEVTIVIEKHK to DLVTIKVPLENLEEIKKAAEKAGFKIVSISYDKENKEVTIVIEKYK, the “folding stability dG” value rises from 3.86 kcal/mol to 4.47 kcal/mol.
